B1: Eukaryotic translation initiation factor 4E1 (Drosophila melanogaster (Fruit fly)), P48598 (parent)
chain: MQSDFHRMKNFANPKSMFKTSAPSTEQGRPEPPTSAAAPAEAKDVKPKEDPQETGEPAGNTATTTAPAGDDAVRTEHLYKHPLMNVWTLWYLENDRSKSWEDMQNEITSFDTVEDFWSLYNHIKPPSEIKLGSDYSLFKKNIRPMWEDAANKQGGRWVITLNKSSKTDLDNLWLDVLLCLIGEAFDHSDQICGAVINIRGKSNKISIWTADGNNEEAALEIGHKLRDALRLGRNNSLQYQLHKDTMVKQGSNVKSIYTL
partner: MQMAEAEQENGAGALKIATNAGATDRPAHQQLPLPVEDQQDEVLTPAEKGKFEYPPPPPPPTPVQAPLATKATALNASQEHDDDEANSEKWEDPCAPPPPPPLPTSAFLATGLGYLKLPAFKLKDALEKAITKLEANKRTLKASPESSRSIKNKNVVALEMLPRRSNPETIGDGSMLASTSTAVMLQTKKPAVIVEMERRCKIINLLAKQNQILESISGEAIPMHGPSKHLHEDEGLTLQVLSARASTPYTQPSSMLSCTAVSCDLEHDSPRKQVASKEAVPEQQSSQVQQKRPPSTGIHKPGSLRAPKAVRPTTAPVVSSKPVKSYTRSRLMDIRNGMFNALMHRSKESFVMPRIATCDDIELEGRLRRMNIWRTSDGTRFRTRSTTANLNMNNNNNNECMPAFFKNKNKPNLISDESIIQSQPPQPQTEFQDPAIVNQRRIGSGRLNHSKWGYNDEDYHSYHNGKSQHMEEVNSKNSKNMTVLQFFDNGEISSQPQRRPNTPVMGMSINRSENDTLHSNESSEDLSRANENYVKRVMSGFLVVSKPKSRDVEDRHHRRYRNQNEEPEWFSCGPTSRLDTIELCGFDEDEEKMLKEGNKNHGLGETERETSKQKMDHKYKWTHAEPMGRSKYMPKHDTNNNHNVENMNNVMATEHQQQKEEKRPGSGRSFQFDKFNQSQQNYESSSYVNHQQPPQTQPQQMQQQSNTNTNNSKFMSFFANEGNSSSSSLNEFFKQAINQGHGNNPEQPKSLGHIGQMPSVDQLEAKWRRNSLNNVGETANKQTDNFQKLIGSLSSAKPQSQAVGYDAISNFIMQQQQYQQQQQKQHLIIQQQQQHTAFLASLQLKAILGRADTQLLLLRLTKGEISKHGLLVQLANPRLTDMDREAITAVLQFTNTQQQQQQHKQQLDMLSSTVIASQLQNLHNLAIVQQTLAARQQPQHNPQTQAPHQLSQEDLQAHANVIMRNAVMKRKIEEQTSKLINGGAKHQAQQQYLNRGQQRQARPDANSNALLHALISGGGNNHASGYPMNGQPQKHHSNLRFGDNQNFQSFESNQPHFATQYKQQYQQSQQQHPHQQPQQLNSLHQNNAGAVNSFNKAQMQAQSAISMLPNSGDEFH
B2: Protein cup (Drosophila melanogaster (Fruit fly)), Q9VMA3 (parent)
chain: B1 partner
partner: B1 chain

In one assay the parent is B1. As to conditions: with cup_drome cup, Q9VMA3.
Take E106A: the “effect of a mutation on the interaction” value is “disrupting interaction”.

Variants of B2 are the subject of the next assay. The settings on record: with if4e_drome eIF4E1, P48598.
L364A;L368A: the “effect of a mutation on the interaction” value is recorded as “disrupting interaction”.

Y327A: the “effect of a mutation on the interaction” value is “disrupting interaction”.

The next assay covers variants of B2. The settings on record: with if4e_drome eIF4E1, P48598. The source holds these as a separate data set.
As for Y327A;L364A;L368A, the “effect of a mutation on the interaction” value is recorded as “disrupting interaction”.

For Y327A, the “effect of a mutation on the interaction” value is given as “decreasing interaction”.

For the origin of these results see IntAct's records for PubMed 14685270.
